Residue numbers refer to the chain shown, from its start.

T1: Fcp1 (activation domain fusion prey) (UniProt Q03254 1-732)
T1 construct: not shown: not described
T1 sequence (looked up): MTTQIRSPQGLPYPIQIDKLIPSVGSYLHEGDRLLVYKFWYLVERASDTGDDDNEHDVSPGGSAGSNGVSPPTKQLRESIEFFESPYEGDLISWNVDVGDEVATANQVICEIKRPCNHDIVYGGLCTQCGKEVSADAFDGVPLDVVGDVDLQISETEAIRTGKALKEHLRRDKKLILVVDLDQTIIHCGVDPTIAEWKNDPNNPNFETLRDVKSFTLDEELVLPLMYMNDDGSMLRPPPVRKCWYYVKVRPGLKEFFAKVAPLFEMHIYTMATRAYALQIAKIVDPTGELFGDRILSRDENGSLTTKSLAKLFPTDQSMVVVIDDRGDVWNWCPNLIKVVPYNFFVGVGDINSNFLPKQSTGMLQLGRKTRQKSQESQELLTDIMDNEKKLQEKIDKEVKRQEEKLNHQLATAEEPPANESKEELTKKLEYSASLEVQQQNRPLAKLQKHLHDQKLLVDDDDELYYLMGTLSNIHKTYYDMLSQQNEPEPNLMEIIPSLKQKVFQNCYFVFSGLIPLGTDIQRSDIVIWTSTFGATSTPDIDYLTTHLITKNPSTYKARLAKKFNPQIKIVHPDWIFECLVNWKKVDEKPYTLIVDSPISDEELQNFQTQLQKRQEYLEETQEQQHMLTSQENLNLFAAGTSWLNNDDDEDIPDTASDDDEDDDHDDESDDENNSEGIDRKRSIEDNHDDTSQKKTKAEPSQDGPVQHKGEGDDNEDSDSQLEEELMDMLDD

T2: Ssn8 (activation domain fusion prey) (UniProt P47821 1-323)
T2 construct: also called Srb11; not shown: not described
T2 sequence (looked up): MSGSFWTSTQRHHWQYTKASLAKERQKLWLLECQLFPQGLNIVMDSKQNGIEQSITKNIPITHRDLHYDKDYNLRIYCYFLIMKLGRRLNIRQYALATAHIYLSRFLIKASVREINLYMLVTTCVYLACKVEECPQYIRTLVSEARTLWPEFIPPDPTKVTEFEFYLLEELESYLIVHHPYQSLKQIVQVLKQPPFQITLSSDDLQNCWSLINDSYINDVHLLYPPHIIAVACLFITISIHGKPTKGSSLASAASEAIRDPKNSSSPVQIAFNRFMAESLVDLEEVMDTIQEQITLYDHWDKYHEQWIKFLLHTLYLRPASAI

T3: Tfb3 (activation domain fusion prey) (UniProt Q03290 1-321)
T3 construct: not shown: not described
T3 sequence (looked up): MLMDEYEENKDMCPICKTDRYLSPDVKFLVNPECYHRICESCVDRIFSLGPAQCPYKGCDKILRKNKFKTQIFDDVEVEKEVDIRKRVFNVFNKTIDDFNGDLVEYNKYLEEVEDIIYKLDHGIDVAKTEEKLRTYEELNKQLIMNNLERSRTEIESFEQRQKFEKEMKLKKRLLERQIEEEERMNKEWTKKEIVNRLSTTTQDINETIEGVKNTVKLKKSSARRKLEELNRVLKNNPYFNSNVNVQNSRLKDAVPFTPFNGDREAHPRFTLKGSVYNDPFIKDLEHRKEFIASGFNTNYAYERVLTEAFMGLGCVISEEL

T4: Whi2 (activation domain fusion prey) (UniProt P12611 1-486)
T4 construct: not shown: not described
T4 sequence (looked up): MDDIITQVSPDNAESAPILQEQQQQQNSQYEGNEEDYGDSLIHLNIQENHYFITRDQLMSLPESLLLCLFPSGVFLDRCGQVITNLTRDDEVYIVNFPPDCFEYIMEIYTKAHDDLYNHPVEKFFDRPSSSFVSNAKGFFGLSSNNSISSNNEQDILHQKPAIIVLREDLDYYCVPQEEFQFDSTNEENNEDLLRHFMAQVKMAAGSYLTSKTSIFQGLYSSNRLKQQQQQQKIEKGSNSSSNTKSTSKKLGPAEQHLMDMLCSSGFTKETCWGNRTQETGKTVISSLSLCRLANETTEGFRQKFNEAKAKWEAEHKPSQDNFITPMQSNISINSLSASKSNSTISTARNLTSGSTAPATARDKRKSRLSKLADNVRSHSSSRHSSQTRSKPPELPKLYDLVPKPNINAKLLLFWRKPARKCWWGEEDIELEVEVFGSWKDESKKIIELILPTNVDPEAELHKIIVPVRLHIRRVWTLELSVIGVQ

T5: YDR428c (activation domain fusion prey) (UniProt Q04066 1-261)
T5 construct: not shown: not described
T5 sequence (looked up): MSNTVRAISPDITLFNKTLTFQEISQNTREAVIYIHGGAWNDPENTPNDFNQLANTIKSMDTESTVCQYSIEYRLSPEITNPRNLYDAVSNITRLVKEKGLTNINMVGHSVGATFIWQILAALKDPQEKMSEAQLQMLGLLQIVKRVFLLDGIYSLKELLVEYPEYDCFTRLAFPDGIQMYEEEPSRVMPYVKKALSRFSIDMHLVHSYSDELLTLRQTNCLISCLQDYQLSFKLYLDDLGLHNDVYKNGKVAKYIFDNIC

B1: Kin28 alone bait (pMK498) (other)
chain: MKLLSSIEQACDICRLKKLKCSKEKPKCAKCLKNNWECRYSPKTKRSPLTRAHLTEVESRLERLEQLFLLIFPREDLDMILKMDSLQDIKALLTGLFVQDNVNKDAVTDRLASVETDMPLTLRQHRISATSSSEESSNKGQRQLTVSNYLFDDEDTPPNPKKEIELENLYFQGEFQLTTMAMKVNMEYTKEKKVGEGTYAVVYLGCQHSTGRKIAIKEIKTSEFKDGLDMSAIREVKYLQEMQHPNVIELIDIFMAYDNLNLVLEFLPTDLEVVIKDKSILFTPADIKAWMLMTLRGVYHCHRNFILHRDLKPNNLLFSPDGQIKVADFGLARAIPAPHEILTSNVVTRWYRAPELLFGAKHYTSAIDIWSVGVIFAELMLRIPYLPGQNDVDQMEVTFRALGTPTDRDWPEVSSFMTYNKLQIYPPPSRDELRKRFIAASEYALDFMCGMLTMNPQKRWTAVQCLESDYFKELPPPSDPSSIKIRNVMAIPGGGRIFYPYDVPDYAGYPYDVPDYAGSYPYDVPDYAAQCGRSS
B2: CTD fused to the wildtype Kin28 (pMK500) (other)
chain: MKLLSSIEQACDICRLKKLKCSKEKPKCAKCLKNNWECRYSPKTKRSPLTRAHLTEVESRLERLEQLFLLIFPREDLDMILKMDSLQDIKALLTGLFVQDNVNKDAVTDRLASVETDMPLTLRQHRISATSSSEESSNKGQRQLTVSNYLFDDEDTPPNPKKEIELENLYFQGEFQYSPTSPSYSLTSPSYSPTSPSLTTMAMKVNMEYTKEKKVGEGTYAVVYLGCQHSTGRKIAIKEIKTSEFKDGLDMSAIREVKYLQEMQHPNVIELIDIFMAYDNLNLVLEFLPTDLEVVIKDKSILFTPADIKAWMLMTLRGVYHCHRNFILHRDLKPNNLLFSPDGQIKVADFGLARAIPAPHEILTSNVVTRWYRAPELLFGAKHYTSAIDIWSVGVIFAELMLRIPYLPGQNDVDQMEVTFRALGTPTDRDWPEVSSFMTYNKLQIYPPPSRDELRKRFIAASEYALDFMCGMLTMNPQKRWTAVQCLESDYFKELPPPSDPSSIKIRNVMAIPGGGRIFYPYDVPDYAGYPYDVPDYAGSYPYDVPDYAAQCGRSS
modifications: CTD phosphorylated at the fifth residue (Ser5) by the tethered wildtype Kin28
notes: also called CTD-Kin28 (wildtype); phosphorylated CTD
B3: CTD fused to the mutant Kin28 (pDG502) (other)
chain: B2 chain with E256Q
notes: also called CTD-Kin28 mutant

One assay has as its target T1, Fcp1 (activation domain fusion prey). Kind of assay: yeast two-hybrid, growth in the presence of 3-AT. How it is done:
(§1) Identification of proteins that interact specifically with the phosphorylated CTD. […] Proteins that interact specifically with the CTD-Kin28 (wildtype) but neither of the other two baits are considered phosphorylated CTD-interacting proteins. Yeast strains containing one of the three baits and a variety of preys (activation domain fusion proteins) were tested for their ability to grow in the presence of different concentration of 3-AT. The ability to grow in such medium indicates stable interactions between the bait(s) and the prey(s). The following proteins (numbered 1-7) are considered phosphorylated CTD-interacting proteins: Fcp1 (a phosphatase known to act on phosphorylated CTD), Ssn8 (or Srb11, a component of the RNA polymerase II holoenzyme), Tfb3 (a component of the RNA polymerase II holoenzyme), Whi2 (a protein involved in cellular growth and a component of a protein phosphatase complex containing the Psr1 catalytic subunit), and three novel proteins (YMR181c, YPL229w, and YDR428c) whose functional links to CTD phosphorylation are novel. In addition, previously known (i.e. Ccl1 and Pcl10) and unknown (YDL100c) Kin28-interacting proteins were also identified in this screen (A-C). Several putative phosphorylated CTD interacting proteins are not labeled due to the current lack of the sequence information.
On to B1, for which the binding result is “no binding”.

In the case of B2, the binding result is given as “binds”.

In the case of B3, the binding result is recorded as “no binding”.

Another assay addresses T2, Ssn8 (activation domain fusion prey). Kind of assay: yeast two-hybrid, growth in the presence of 3-AT. How it is done: as §1
For the molecule B1, the binding result is given as “no binding”.

In the case of B2, the binding result is reported as “binds”.

With B3, the binding result is recorded as “no binding”.

The target in a further assay is T3, Tfb3 (activation domain fusion prey). Kind of assay: yeast two-hybrid, growth in the presence of 3-AT. On the procedure:
as §1
In the case of B1, the binding result is reported as “no binding”.

With B2, the binding result is given as “binds”.

On to B3, for which the binding result is listed as “no binding”.

The target in the next assay is T4, Whi2 (activation domain fusion prey). Briefly: yeast two-hybrid, growth in the presence of 3-AT. How it is done: as §1
For B1, the binding result was “no binding”.

Take B2: the binding result is listed as “binds”.

For B3, the binding result is listed as “no binding”.

The next assay concerns the target T5, YDR428c (activation domain fusion prey). Briefly: yeast two-hybrid, growth in the presence of 3-AT. On the procedure:
as §1
B1: the binding result was “no binding”.

In the case of B2, the binding result is given as “binds”.

With B3, the binding result is recorded as “no binding”.

Values taken from patent US20040259122A1 (MICHIGAN STATE UNIVERSITY, published 2004).
